We go through 2 molecules from publication PMC4238996 (PLoS Neglected Tropical Diseases, 2014).

Where a chain is given by its changes, count along the chain named.

This assay deals with T1, M. tuberculosis Rv0020c (M. tuberculosis H37Rv, UniProt P71590 1-527).
T1 sequence: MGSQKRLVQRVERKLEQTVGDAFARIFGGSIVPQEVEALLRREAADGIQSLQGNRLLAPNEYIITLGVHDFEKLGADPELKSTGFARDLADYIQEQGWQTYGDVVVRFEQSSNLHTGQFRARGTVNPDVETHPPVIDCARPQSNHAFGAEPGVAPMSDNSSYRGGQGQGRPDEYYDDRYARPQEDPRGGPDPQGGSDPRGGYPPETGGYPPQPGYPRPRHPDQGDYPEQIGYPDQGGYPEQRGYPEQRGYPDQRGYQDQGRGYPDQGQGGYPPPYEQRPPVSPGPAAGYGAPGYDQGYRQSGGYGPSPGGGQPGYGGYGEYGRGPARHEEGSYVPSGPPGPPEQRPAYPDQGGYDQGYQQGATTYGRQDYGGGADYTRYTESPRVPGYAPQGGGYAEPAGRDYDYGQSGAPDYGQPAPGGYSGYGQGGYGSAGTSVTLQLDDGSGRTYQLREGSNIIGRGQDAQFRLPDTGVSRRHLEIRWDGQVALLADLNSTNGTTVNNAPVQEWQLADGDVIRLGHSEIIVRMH
Nature of the assay: ELISA. Conditions: both partners purified. For orientation: In an ELISA, binding on a coated surface is turned into a signal by an enzyme label.

B1: MBP-tagged MupDivIVA-P (Mup012c residues 1-87, phosphorylated by co-expression with PknQ) (natural protein, M. ulcerans Agy99 (plasmid pMUM001), UniProt Q6MZ92 1-87, looked up)
chain: MSHSELLDPALPKSPFGKQGYRYDDVDVFLRLIADELQGSDLSESDIHSITFRCAAPLTRGYDTESVDRFLDRIAETIARGHGDEGQ
notes: also called phosphorylated MupDivIVA
In the case of B1, the binding result is listed as “binds”.

B2: MBP-tagged MupDivIVA S43/45/49A triple mutant (natural protein)
chain: B1 chain with S43A, S45A, S49A
On to B2, for which the binding result was “binds”.
